# T1: activated C1s (Homo sapiens, UniProt P09871)
# T1 construct: purchased Complement Technology
# T1 sequence (P09871 16-437 limits assumed): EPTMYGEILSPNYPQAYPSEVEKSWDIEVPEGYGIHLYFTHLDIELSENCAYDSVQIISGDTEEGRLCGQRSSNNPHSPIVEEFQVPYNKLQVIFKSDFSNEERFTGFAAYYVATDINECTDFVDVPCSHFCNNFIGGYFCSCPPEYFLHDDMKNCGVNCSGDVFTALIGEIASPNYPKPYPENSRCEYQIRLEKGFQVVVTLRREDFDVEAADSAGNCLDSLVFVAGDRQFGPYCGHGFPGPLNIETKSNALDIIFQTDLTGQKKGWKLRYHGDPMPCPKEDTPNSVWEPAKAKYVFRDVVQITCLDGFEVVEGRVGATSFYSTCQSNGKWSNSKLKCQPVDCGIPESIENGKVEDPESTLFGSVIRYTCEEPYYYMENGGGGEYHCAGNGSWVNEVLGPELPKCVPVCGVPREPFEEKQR
# T1 sequence (P09871 438-688 limits assumed): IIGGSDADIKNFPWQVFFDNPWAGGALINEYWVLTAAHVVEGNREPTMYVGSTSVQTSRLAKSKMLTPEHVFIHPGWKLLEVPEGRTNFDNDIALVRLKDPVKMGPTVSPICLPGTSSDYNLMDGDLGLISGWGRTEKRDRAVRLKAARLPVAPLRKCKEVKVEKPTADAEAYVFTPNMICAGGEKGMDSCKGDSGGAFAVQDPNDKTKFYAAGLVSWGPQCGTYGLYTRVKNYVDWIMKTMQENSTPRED
# Molecular target: T1, activated C1s
# Assay: N-carboxybenzyloxythiobenzyl ester/DTNB colorimetric detection of enzymatic activity of C1s standard
# Type: biochemical
# Conditions: for Enzymatic activity of C1s standards: conversion from Example 4
# From the text: In the present disclosure, the enzymatic activity of activated C1s was detected in a sample to be tested. Therefore, it was necessary to determine the enzymatic activity of a C1s standard used in the experiment and to prepare a standard curve for later C1s enzymatic activity. The enzymatic activity of the activated C1s was detected by an N-carboxybenzyloxythiobenzyl ester/5,5′-dithiobis(2-nitrobenzoic acid) colorimetric method. The method specifically included the steps as follows: • (1) Materials: 1) Analysis buffer: 50 mM Tris, 250 mM NaCl, pH=8.0; • 2) substrate: N-carboxybenzyloxythiobenzyl ester (ZKSBzl), dissolved in 10 mM dimethyl sulfoxide; and • 3) 5,5′-dithiobis(2-nitrobenzoic acid) (DTNB), dissolved in 10 mM dimethyl sulfoxide. • (2) Detection of C1s activity units: • 1. The C1s standard was diluted to 0.2 μg/mL with an assay buffer. • 2. The DNTB was added to the assay buffer at a final concentration of 200 μM, and a substrate was added to the assay buffer at a final concentration of 1,000 μM. • 3. 50 μL of 0.2 ng/μL C1s was added into a plate. • 4. 50 μL of a mixture including 1,000 μM substrate/200 μM DTNB was added to the wells to start a reaction. • 5. An absorbance at 5 min was read at 405 nm with a microplate reader. • (3) Calculation of activated C1s:
# In subsequent experiments, the enzymatic activity of the C1s standard was defined in this way.
molecule,measurement,setting,value
C1s standard: humanized or recombinant C1s standard; activated C1s used as calibrator (protein) chain 1: EPTMYGEILSPNYPQAYPSEVEKSWDIEVPEGYGIHLYFTHLDIELSENCAYDSVQIISGDTEEGRLCGQRSSNNPHSPIVEEFQVPYNKLQVIFKSDFSNEERFTGFAAYYVATDINECTDFVDVPCSHFCNNFIGGYFCSCPPEYFLHDDMKNCGVNCSGDVFTALIGEIASPNYPKPYPENSRCEYQIRLEKGFQVVVTLRREDFDVEAADSAGNCLDSLVFVAGDRQFGPYCGHGFPGPLNIETKSNALDIIFQTDLTGQKKGWKLRYHGDPMPCPKEDTPNSVWEPAKAKYVFRDVVQITCLDGFEVVEGRVGATSFYSTCQSNGKWSNSKLKCQPVDCGIPESIENGKVEDPESTLFGSVIRYTCEEPYYYMENGGGGEYHCAGNGSWVNEVLGPELPKCVPVCGVPREPFEEKQR chain 2: IIGGSDADIKNFPWQVFFDNPWAGGALINEYWVLTAAHVVEGNREPTMYVGSTSVQTSRLAKSKMLTPEHVFIHPGWKLLEVPEGRTNFDNDIALVRLKDPVKMGPTVSPICLPGTSSDYNLMDGDLGLISGWGRTEKRDRAVRLKAARLPVAPLRKCKEVKVEKPTADAEAYVFTPNMICAGGEKGMDSCKGDSGGAFAVQDPNDKTKFYAAGLVSWGPQCGTYGLYTRVKNYVDWIMKTMQENSTPRED,enzymatic activity,1 μg/mL C1s standard,0.91 pmol/min/µg
same,Enzymatic activity of C1s standards,6.25 μg/mL,5.7 pmol/min/µg
same,Enzymatic activity of C1s standards,12.5 μg/mL,11.4 pmol/min/µg
same,Enzymatic activity of C1s standards,25 μg/mL,22.8 pmol/min/µg
same,Enzymatic activity of C1s standards,50 μg/mL,45.5 pmol/min/µg
same,Enzymatic activity of C1s standards,100 μg/mL,91 pmol/min/µg
same,Enzymatic activity of C1s standards,200 μg/mL,182 pmol/min/µg

# Source: US20250012721A1, “FLUORESCENCE DETECTION KIT FOR ACTIVATED COMPLEMENT C1s, DETECTION METHOD USING SAME, AND USE THEREOF” (JIANGSU UNIVERSITY, priority 2022, published 2025)
